Test results as given in US12540161B2, “Linkers” (BicycleTx Limited, priority 2020, dated 2026).

What was measured:
[1] = Plasma stability analysis, mouse plasma; conditions: plasma, BTCs
Experimental: Pooled frozen plasma was thawed in a water bath at 37° C. Plasma was centrifuged at 4000 rpm for 5 min and the clots were removed if any. The pH will be adjusted to 7.4±0.1 if required. 1 mM stock solution was prepared with DMSO. Propantheline (positive control) was prepared by making a 100 μM working solution by diluting 5 μL of the stock solution (10 mM) with 495 μL ultra pure water. 100 μM working solutions of test compounds were made up by diluting 10 μL of the stock solution (1 mM) with 90 μL DMSO. 98 μL of blank plasma was spiked with 2 μL of dosing solution (100 μM) to achieve 2 μM of the final concentration in duplicate and samples were incubated at 37° C. in a water bath. […] An aliquot of supernatant (150 μL) was transferred from each well before submitting for LC-MS/MS analysis.
The % remaining test compound after incubation in plasma was calculated using following equation: Remaining=100×(PAR at appointed incubation time/PAR at T0 time)
where PAR is the peak area ratio of analyte versus internal standard (IS).
The half-life (T½) was calculated from a log linear plot of concentration versus time.

Cathepsin B = Cathepsin B (Homo sapiens, UniProt P07858); test: Cathepsin B (CatB) cleavage assay; format: biochemical; conditions: BTCs; for half-life at 40 μM: read-out: CatB t1/2 (converted)
Experimental: 15 μL of test compound solution (2 mM in DMSO) was added to the incubation plate in duplicate. 30 μL of Cathepsin B stock solution (16 μM) was pre-activated with 1500 μL activation buffer for 10 min at room temperature. The Cathepsin B solution was diluted in 13.17 mL water, then 735 μL activatived enzyme mixture was added to the incubation plate. The mixture was incubated at 37° C. in a waterbath. […] The samples were mixed and centrifuged at 4000 rpm for 20 min. 50 μL of supernatant was taken into a new plate containing 150 μL ultra-pure water and the samples mixed thoroughly before submitting to LC-MS/MS analysis.

in vivo [2] = conditions: male, CD-1, mouse, plasma, intravenous
Experimental: Male CD-1 mice were dosed with each Bicycle Conjugate formulated in 25 mM histidine HCl, 10% sucrose pH 7 via tail vein injection. Serial bleeding (about 80 μL blood/time point) was performed via submadibular or saphenous vein at each time point. All blood samples were immediately transferred into prechilled microcentrifuge tubes containing 2 μL K2-EDTA (0.5M) as anti-coagulant and placed on wet ice. Blood samples were immediately processed for plasma by centrifugation at approximately 4° C., 3000 g. The precipitant including internal standard (350 μL) was immediately added into the 35 μL plasma sample, mixed well and centrifuged at 3220 g, 4° C. for 15 minutes. The supernatant was transferred into pre-labeled polypropylene microcentrifuge tubes, and then quick-frozen over dry ice. The samples were stored at 70° C. or below as needed until analysis. Supernatant samples were mixed with 50 μL water, vortexed well and centrifuged at 3220 g, 4° C. for 15 minutes. A sample of the supernatant was injected for LC-MS/MS analysis using an Acquity UPLC with AB Sciex 6500+ Triple Quad MS in positive ion mode to determine the concentrations of Bicycle Conjugate and released payload. Plasma concentration versus time data were analyzed by non-compartmental approaches using the Phoenix WinNonlin 6.3 software program. C0, Cl, Vdss, T1/2, AUC(0-inf), MRT(0-last), MRT(0-inf) nd graphs of plasma concentration versus time profile were reported.

in vitro [3] = conditions: rat, plasma, pH 7.4
Experimental: (§1) Pooled frozen plasma was thawed in a water bath at 37° C. Plasma was centrifuged at 4000 rpm for 5 min and the clots were removed if any. The pH will be adjusted to 7.4±0.1 if required. 1 mM stock solution was prepared with DMSO. Propantheline (positive control) was prepared by making a 100 μM working solution by diluting 5 μL of the stock solution (10 mM) with 495 μL ultra pure water. 100 μM working solutions of test compounds were made up by diluting 10 μL of the stock solution (1 mM) with 90 μL DMSO. 98 μL of blank plasma was spiked with 2 μL of dosing solution (100 μM) to achieve 2 μM of the final concentration in duplicate and samples were incubated at 37° C. in a water bath. At each time point (0, 1, 2, 4, 6 and 24 hr), 400 μL of 200 ng/mL tolbutamide and labetalol in 100% MeOH was added and mixed thoroughly to precipitate proteins. Sample plates were centrifuged at 4,000 rpm for 15 min. An aliquot of supernatant (150 μL) was transferred from each well before submitting for LC-MS/MS analysis.
(§2) The appointed incubation time points are T0 (0 hr), Tn (n=0, 1, 2, 4, 6, 24 hr). The half-life (T½) was calculated from a log linear plot of concentration versus time.
(§3) When the % remaining value at the maximal incubation time, which was 24 hr in this study, was higher than 75%, it is considered to be within the acceptable experimental variation.

in vitro [4] = conditions: human, plasma, pH 7.4
Experimental: as §1, §2, §3

in vitro [5] = conditions: mouse, plasma
in vitro [6] = conditions: rat, plasma
in vitro [7] = conditions: cynomolgus monkey, plasma
in vitro [8] = conditions: human, plasma
[9] = rat
in vivo [10] = conditions: rat, plasma
[11] = pH 7.4, Mouse plasma t1/2 (EDTA), EDTA anticoagulant
[12] = pH 7.4, Mouse plasma t1/2 (Herparin), heparin anticoagulant
[13] = Plasma protein binding (% Unbound) Rat

Row | SMILES | half-life at 2 μM [1, 11] [h] | half-life at 2 μM [1, 12] [h] | % Parent remaining after incubation with CatB, 0 h (Cathepsin B) [%] | % Parent remaining after incubation with CatB, 1 h (Cathepsin B) [%] | % Parent remaining after incubation with CatB, 2 h (Cathepsin B) [%] | % Parent remaining after incubation with CatB, 4 h (Cathepsin B) [%] | % Parent remaining after incubation with CatB, 6 h (Cathepsin B) [%] | % Parent remaining after incubation with CatB, 24 h (Cathepsin B) [%] | half-life at 40 μM (Cathepsin B) [h] | C0 (in vivo [2]) [ng/mL] | Vd (in vivo [2]) [L/kg] | clearance (in vivo [2]) [mL/min/kg] | half-life (in vivo [2]) [h] | half-life at 2 μM (in vitro [3]) [h] | half-life at 2 μM (in vitro [4]) [h] | fraction unbound (in vitro [5]) | fraction unbound (in vitro [6]; [13]) | fraction unbound (in vitro [7]) | fraction unbound (in vitro [8]) | other results
1 | CC[C@H](C)[C@@H]([C@@H](CC(=O)N1CCC[C@H]1[C@H](OC)[C@@H](C)C(=O)N[C@H](C)[C@@H](O)c1ccccc1)OC)N(C)C(=O)[C@@H](NC(=O)[C@H](C(C)C)N(C)C(=O)OCc1ccc(NC(=O)[C@H](CCN)NC(=O)[C@@H](NC(=O)[C@H](CCC(=O)O)NC(=O)Cn2cc(CCC(=O)NCCC(=O)N(C)CC(=O)N(C)CC(=O)N(C)CC(=O)N(C)CC(=O)N(C)CC(=O)N(C)CC(=O)N(C)CC(=O)N(C)CC(=O)N(C)CC(=O)N(C)CC(=O)N[C@@H](C)C(=O)N[C@H]3CN(C)Cc4cc5cc(c4)CN(C)C[C@@H](C(N)=O)NC(=O)[C@H](C(C)(C)C)NC(=O)[C@H](CC(=O)O)NC(=O)[C@H](Cc4ccc(O)cc4)NC(=O)[C@H](Cc4ccccc4)NC(=O)[C@H](CC(=O)O)NC(=O)[C@H](CCC(=O)O)NC(=O)[C@H](CSC5)NC(=O)[C@@H](C)NC(=O)[C@H](Cc4cccc5ccccc45)NC(=O)[C@H](CCC(=O)O)NC(=O)[C@H](CC(N)=O)NC(=O)[C@@H](C)NC3=O)nn2)C(C)C)cc1)C(C)C [BCY10981, MMAE-PAB-(Dab-Val-Glu)-BCY3900] | > 57.8 | > 57.8 | 100 | 0 | 0 | 0 | 0 | 0 | < 0.2 | 30700 | 0.15 | 3.9 | 0.6 | > 57.8 | 73.8 | 0.288 | 0.417 | 0.459 | 0.653 | –
2 | CC[C@H](C)[C@@H]([C@@H](CC(=O)N1CCC[C@H]1[C@H](OC)[C@@H](C)C(=O)N[C@H](C)[C@@H](O)c1ccccc1)OC)N(C)C(=O)[C@@H](NC(=O)[C@H](C(C)C)N(C)C(=O)OCc1ccc(NC(=O)[C@H](CCN)NC(=O)[C@H](Cc2cccc3ccccc23)NC(=O)[C@H](CCC(=O)O)NC(=O)Cn2cc(CCC(=O)NCCC(=O)N(C)CC(=O)N(C)CC(=O)N(C)CC(=O)N(C)CC(=O)N(C)CC(=O)N(C)CC(=O)N(C)CC(=O)N(C)CC(=O)N(C)CC(=O)N(C)CC(=O)N[C@@H](C)C(=O)N[C@H]3CN(C)Cc4cc5cc(c4)CN(C)C[C@@H](C(N)=O)NC(=O)[C@H](C(C)(C)C)NC(=O)[C@H](CC(=O)O)NC(=O)[C@H](Cc4ccc(O)cc4)NC(=O)[C@H](Cc4ccccc4)NC(=O)[C@H](CC(=O)O)NC(=O)[C@H](CCC(=O)O)NC(=O)[C@H](CSC5)NC(=O)[C@@H](C)NC(=O)[C@H](Cc4cccc5ccccc45)NC(=O)[C@H](CCC(=O)O)NC(=O)[C@H](CC(N)=O)NC(=O)[C@@H](C)NC3=O)nn2)cc1)C(C)C [BCY10985, MMAE-PAB-(Dab-1Nal-Glu)-BCY3900] | > 57.8 | > 57.8 | 100 | 103.62 | 94.8 | 107 | 92.2 | 86.82 | > 57.8 | 26400 | 0.18 | 1 | 2.48 | > 57.8 | > 57.8 | 0.048 | – | – | 0.234 | –
3 | CC[C@H](C)[C@@H]([C@@H](CC(=O)N1CCC[C@H]1[C@H](OC)[C@@H](C)C(=O)N[C@H](C)[C@@H](O)c1ccccc1)OC)N(C)C(=O)[C@@H](NC(=O)[C@H](C(C)C)N(C)C(=O)OCc1ccc(NC(=O)[C@H](CCCNC(N)=O)NC(=O)[C@@H](NC(=O)Cn2cc(CCC(=O)NCCC(=O)N(C)CC(=O)N(C)CC(=O)N(C)CC(=O)N(C)CC(=O)N(C)CC(=O)N(C)CC(=O)N(C)CC(=O)N(C)CC(=O)N(C)CC(=O)N(C)CC(=O)N[C@@H](C)C(=O)N[C@H]3CN(C)Cc4cc5cc(c4)CN(C)C[C@@H](C(N)=O)NC(=O)[C@H](C(C)(C)C)NC(=O)[C@H](CC(=O)O)NC(=O)[C@H](Cc4ccc(O)cc4)NC(=O)[C@H](Cc4ccccc4)NC(=O)[C@H](CC(=O)O)NC(=O)[C@H](CCC(=O)O)NC(=O)[C@H](CSC5)NC(=O)[C@@H](C)NC(=O)[C@H](Cc4cccc5ccccc45)NC(=O)[C@H](CCC(=O)O)NC(=O)[C@H](CC(N)=O)NC(=O)[C@@H](C)NC3=O)nn2)C(C)C)cc1)C(C)C [BCY7761, MMAE-PAB-(Cit-Val)-BCY3900, reference compound] | 9.1 | 9.2 | 100 | 33.687 | 15.1 | 4.93 | 1.01 | 0.462 | 0.9 | 24800 | 0.04 | 1 | 0.48 | 56.8 | > 57.8 | 0.173 | 0.106 | 0.187 | 0.211 | half-life at 2 μM ([1]; pH 7.4, Mouse plasma t1/2 expt 2 (EDTA), EDTA anticoagulant, experiment 2): 6.8 h; AUC ratio [9]: 0.00445; half-life (in vivo [10]): 0.49 h; fraction unbound (in vitro [6]; PPB (% Unbound), rat (Table 9)): 0.11
4 | CC[C@H](C)[C@@H]([C@@H](CC(=O)N1CCC[C@H]1[C@H](OC)[C@@H](C)C(=O)N[C@H](C)[C@@H](O)c1ccccc1)OC)N(C)C(=O)[C@@H](NC(=O)[C@H](C(C)C)N(C)C(=O)OCc1ccc(NC(=O)[C@H](CCCNC(N)=O)NC(=O)[C@@H](NC(=O)[C@H](CCC(=O)O)NC(=O)Cn2cc(CCC(=O)NCCC(=O)N(C)CC(=O)N(C)CC(=O)N(C)CC(=O)N(C)CC(=O)N(C)CC(=O)N(C)CC(=O)N(C)CC(=O)N(C)CC(=O)N(C)CC(=O)N(C)CC(=O)N[C@@H](C)C(=O)N[C@H]3CN(C)Cc4cc5cc(c4)CN(C)C[C@@H](C(N)=O)NC(=O)[C@H](C(C)(C)C)NC(=O)[C@H](CC(=O)O)NC(=O)[C@H](Cc4ccc(O)cc4)NC(=O)[C@H](Cc4ccccc4)NC(=O)[C@H](CC(=O)O)NC(=O)[C@H](CCC(=O)O)NC(=O)[C@H](CSC5)NC(=O)[C@@H](C)NC(=O)[C@H](Cc4cccc5ccccc45)NC(=O)[C@H](CCC(=O)O)NC(=O)[C@H](CC(N)=O)NC(=O)[C@@H](C)NC3=O)nn2)C(C)C)cc1)C(C)C [BCY10980, MMAE-PAB-(Cit-Val-Glu)-BCY3900] | > 57.8 | > 57.8 | 100 | 0 | 0 | 0 | 0 | 0 | < 0.2 | 40200 | 0.2 | 4.8 | 0.64 | > 57.8 | 40 | 0.187 | – | – | – | –
